Experimental findings from patent publication US20240158497A1 (published 2024) are described below.

Sequences and labels used below:
B1: MAb16680 (antibody, V domains shown)
VH: QVQLQQSGPGQMKSSQTLTLTCAISGDSVSSNSAIWYWIRQSPSRGLEWLGRTKFRSKWYNDFALSMKSRITINPDTSKNQFSLHLNSVTPEDTAVYYCARYKWELYFDYWGQGTLVTVSS
VL: not shown
notes: hIgG4 isotype control used
B2: MAb16669 (antibody, V domains shown)
VH: EVQLVESGGGLVQPGGSLRLSCAASGFTFSSYAMNWVRQAPGKGLEWVSAISGSGDSTYYTDSVKGRFTISRDNSKNTLYLQMNTLRAEDTAVYYCAKEEIVMLVGATPGWFDPWGQGTLVTVSS
VL: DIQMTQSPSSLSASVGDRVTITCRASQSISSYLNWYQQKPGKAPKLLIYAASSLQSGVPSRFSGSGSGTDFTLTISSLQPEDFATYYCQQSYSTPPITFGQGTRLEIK
B3: MAb16682 (antibody, V domains shown)
VH: EVQLVESGGGLVQPGGSLRLSCAASGFTFSTYWMNWVRQAPGKGLEWVANIKEDGSEKYYVDSVKGRFTISRDNAKNSLYLQMNSLRAEDTAVYYCAREGFGVVTYIWGQGTMVTVSS
VL: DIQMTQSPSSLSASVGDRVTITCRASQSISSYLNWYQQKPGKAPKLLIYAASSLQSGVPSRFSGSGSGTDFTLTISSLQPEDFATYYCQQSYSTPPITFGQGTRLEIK
B4: MAb16683 (antibody, V domains shown)
VH: QVQLVESGGGLVKPGGSLRLSCAASGFTFSDYYMTWIRQTPGKGLDWVSYISSSGTNKYNADSVKGRFTISRDNAKNSLYLQMNSLRAEDTAVYYCVRDPPWGMDVWGQGTTVTVSS
VL: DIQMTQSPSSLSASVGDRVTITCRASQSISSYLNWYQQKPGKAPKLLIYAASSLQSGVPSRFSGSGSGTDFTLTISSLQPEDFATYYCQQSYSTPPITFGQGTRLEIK
B5: MAb16673 (antibody, V domains shown)
VH: EVQLVQSGAEVKKPGESLKISCKGSGYSFTSYWIDWVRQMPGKGLEWMGIIYPDDSDTRYSPSFQGQVTMSVDKSISTAYLQWSSLKASDTAIYYCARHERGIVEAGTDYYYYYGMDVWGQGTTVTVSS
VL: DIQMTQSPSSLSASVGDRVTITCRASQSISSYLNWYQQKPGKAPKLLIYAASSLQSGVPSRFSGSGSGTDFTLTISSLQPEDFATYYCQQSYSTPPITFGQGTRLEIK
B6: MAb16676 (antibody, V domains shown)
VH: QVQLVQSGAEVMKPGASVKVSCRASGYTFSSYDINWVRQAPGQGLEWMGWISTATGNTNYPQKVQGRVTMTTDTSTNTAYMELRSLRSDDTAVYYCTREGNSKGWLDPWGQGTLVTVSS
VL: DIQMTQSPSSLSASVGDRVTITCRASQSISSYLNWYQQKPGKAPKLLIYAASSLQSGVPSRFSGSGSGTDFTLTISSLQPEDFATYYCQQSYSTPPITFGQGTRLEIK
B7: MAb16680 (antibody, V domains shown)
VH: B1 VH
VL: not shown
notes: captured through anti-human Fc

For the first assay, the target named is T1, human GP130 delta D1-D3 with C-terminal myc-myc hexahistidine tag (human, UniProt P40189 329-619).
T1 construct: used as CHO supernatant; also called human GP130 delta D1-D3-MMH; GP130 Delta D1-D3 extracellular domain
Briefly: Luminex, antigen captured on anti-myc beads. The protocol: Aliquots of microspheres with immobilized anti-myc monoclonal antibodies, prepared as described above, were added individually to 1 mL of the each of these protein supernatants and to 500 uL of purified GP130 protein. The microspheres were gently mixed, incubated for two hours at 25° C., washed twice with 1 mL of DBPS, centrifuged to remove the supernatant and finally resuspended in 1 mL of DPBS buffer. Forty eight μL of anti-myc IgG coupled microspheres from individual reactions with full length human GP130 and with each of the human GP130 domain proteins were withdrawn and mixed together in 3.6 mL of PBS+20 mg/mL BSA+0.05% sodium azide (blocking buffer).
From this mixed pool, 75 μL of microspheres were plated per well on a 96 well filter plate (Millipore, Cat. No: MSBVN1250) and mixed with 25 μL of individual anti-human GP130 monoclonal antibodies (0.5 or 5 μg/mL), incubated for two hours at 25° C. and then washed twice with 200 μL of DPBS with 0.05% Tween 20 (washing buffer). To detect and quantify the amounts of bound anti-GP130 antibody levels to individual microspheres, either 100 μL of 2.5 μg/mL R-Phycoerythrin conjugated goat F(ab′)2 anti-human kappa (Southern Biotech, Cat #2063-09) in blocking buffer, was added and incubated for 30 minutes at 25° C. After 30 minutes, the samples were washed twice with 200 μL of washing buffer and resuspended in 150 μL of wash buffer. The Median Fluorescence intensity (MFI) of the microspheres was measured in a Luminex Analyzer.
In the case of B1, the “Luminex MFI signal” value was 18700 MFI.

The next assay addresses T2, human GP130 extracellular domain expressed with a C-terminal myc-myc-hexahistidine tag (human, UniProt P40189 23-619).
T2 construct: Monomeric reagent; also called hGP130-mmH; hGP130-MMH
Briefly: SPR (Biacore 4000), mAb captured on anti-human Fc, 37 C. The protocol: (§1) Equilibrium dissociation constant (KD) for different GP130 reagents binding to purified anti-GP130 monoclonal antibodies were determined using a real-time surface plasmon resonance based Biacore 4000 biosensor. All binding studies were performed in 10 mM HEPES, 150 mM NaCl, 3 mM EDTA, and 0.05% v/v Surfactant Tween-20, pH 7.4 (HBS-ET) running buffer at 25° C. and 37° C. The Biacore sensor surface was first derivatized by amine coupling with a monoclonal mouse anti-human Fc antibody (GE, #BR-1008-39) to capture anti-GP130 monoclonal antibodies. […] Reagents tagged with “mmH” are monomeric, whereas reagents tagged with “mFc” are dimeric. Thus, for example, “hGP130-mmH” is also referred to as “monomeric human GP130,” and “hGP130-mFc” is also referred to as “dimeric human GP130.”
(§2) The association rate (k a) and dissociation rate (kd) were determined by fitting the real-time binding sensorgrams to a 1:1 binding model with mass transport limitation using Scrubber 2.0c curve-fitting software. Binding dissociation equilibrium constant (KD) and dissociative half-life (t ½) were calculated from the kinetic rates as: […]
(In general: Surface plasmon resonance follows binding to a sensor surface in real time, without labels.)
With B2, the “100 nM Ag Bound” value is 25 RU, the dissociation constant Kd was 19.3 nM, the off-rate (koff) stood at 0.00106 s⁻¹ and the on-rate constant (kon) is 55100 M⁻¹ s⁻¹. In addition, the t½ worked out at 11 min.

With B3, the “100 nM Ag Bound” value came out at 16 RU, binding was characterised by a dissociation constant (Kd) of 113 nM, the dissociation rate constant (koff) was found to be 0.0341 s⁻¹ and the on-rate (kon) stood at 301000 M⁻¹ s⁻¹. Moreover, the t½ is 0.3 min.

B4: the “100 nM Ag Bound” value is 38 RU, the dissociation constant Kd turned out to be 117 nM, the koff amounted to 0.0125 s⁻¹ and the on-rate (kon) turned out to be 107000 M⁻¹ s⁻¹. The molecule also registered a t½ of 0.9 min.

For B5, the “100 nM Ag Bound” value stood at 40 RU, the dissociation constant Kd is 75.4 nM, the dissociation rate constant (koff) worked out at 0.0404 s⁻¹ and the kon is 536000 M⁻¹ s⁻¹. This molecule also returned a t½ of 0.3 min.

Regarding B6, the “100 nM Ag Bound” value turned out to be 52 RU, the equilibrium dissociation constant (Kd) was found to be 6.01 nM, the off-rate constant (koff) was found to be 0.00236 s⁻¹ and the association rate constant (kon) is 393000 M⁻¹ s⁻¹. The t½ came out at 5 min.

The next assay deals with T3, Macaca fascicularis GP130 extracellular domain expressed with a C-terminal myc-myc-hexahistidine tag (Macaca fascicularis, UniProt P40189 23-619 (human entry)).
T3 construct: Monomeric reagent; also called mfGP130-mmH; mfGP130-MMH
T3 chain: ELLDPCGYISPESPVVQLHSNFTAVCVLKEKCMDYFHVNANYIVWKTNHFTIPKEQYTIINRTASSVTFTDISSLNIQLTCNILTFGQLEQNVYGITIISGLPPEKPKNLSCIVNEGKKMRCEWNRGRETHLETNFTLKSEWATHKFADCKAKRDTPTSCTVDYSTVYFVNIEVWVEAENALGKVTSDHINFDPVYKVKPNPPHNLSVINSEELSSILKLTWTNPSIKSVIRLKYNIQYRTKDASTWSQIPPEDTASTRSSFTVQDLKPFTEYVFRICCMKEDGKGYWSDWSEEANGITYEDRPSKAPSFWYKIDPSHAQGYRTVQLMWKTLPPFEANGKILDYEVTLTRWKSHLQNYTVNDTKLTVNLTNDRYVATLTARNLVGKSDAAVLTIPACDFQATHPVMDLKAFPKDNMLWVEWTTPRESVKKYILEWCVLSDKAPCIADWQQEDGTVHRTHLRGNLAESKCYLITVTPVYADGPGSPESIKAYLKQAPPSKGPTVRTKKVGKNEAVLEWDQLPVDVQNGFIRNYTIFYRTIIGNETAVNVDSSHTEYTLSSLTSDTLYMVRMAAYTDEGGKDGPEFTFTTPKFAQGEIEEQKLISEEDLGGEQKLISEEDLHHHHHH
The description is as above. How it is done:
as §1, §2
In the case of B2, the “100 nM Ag Bound” value amounted to 8 RU.

Regarding B3, the “100 nM Ag Bound” value was 15 RU; the affinity, expressed as Kd, was 124 nM; the koff was determined as 0.0386 s⁻¹; the association rate constant (kon) is 311000 M⁻¹ s⁻¹. The t½ stood at 0.3 min.

Consider B4, for which the “100 nM Ag Bound” value was determined as 43 RU, binding was put at a Kd of 125 nM, the koff came out at 0.0121 s⁻¹ and the on-rate constant (kon) turned out to be 96500 M⁻¹ s⁻¹. The molecule further came in with a t½ of 1 min.

As to B5, the “100 nM Ag Bound” value came out at 64 RU, binding was put at a Kd of 34.1 nM, the off-rate constant (koff) worked out at 0.0211 s⁻¹ and the kon was 617000 M⁻¹ s⁻¹. In addition, the t½ stood at 0.5 min.

With B6, the “100 nM Ag Bound” value was found to be 48 RU, the Kd came to 7.12 nM, the koff is 0.00243 s⁻¹ and the kon is 341000 M⁻¹ s⁻¹. The t½ worked out at 5 min.

For the next assay, the target named is T4, mouse GP130 extracellular domain expressed with a C-terminal myc-myc-hexahistidine tag (mGP130-mmH) (mouse, UniProt Q00560 23-617).
T4 construct: Monomeric; the entry includes the myc-myc-His tag
Briefly: SPR Biacore, mAb captured via anti-hFc, 25 C. How it is done: as §1, §2
B7: the “100 nM Ag Bound (RU)” value turned out to be 0 RU.

The next assay has as its target T5, rat GP130 extracellular domain expressed with a C-terminal myc-myc-hexahistidine tag (rGP130-mmH) (rat, UniProt P40190 23-618).
T5 construct: Monomeric; the entry includes the myc-myc-His tag
Kind of assay: SPR Biacore, mAb captured via anti-hFc, 25 C. How it is done: as §1, §2
Take B7: the “100 nM Ag Bound (RU)” value amounted to 2 RU and the binding result was “no binding (tested: 100 nM)”.

Another assay deals with T4, mouse GP130 extracellular domain …. Briefly: SPR Biacore, mAb captured via anti-hFc, 37 C. The protocol:
as §1, §2
As to B7, the “100 nM Ag Bound (RU)” value turned out to be 0 RU and the binding result is “no binding (tested: 100 nM)”.

For another assay, the target named is T5, rat GP130 extracellular domain …. Kind of assay: SPR Biacore, mAb captured via anti-hFc, 37 C. How it is done: as §1, §2
As for B7, the “100 nM Ag Bound (RU)” value is 1 RU.

In a further assay the target is T3, Macaca fascicularis GP130 extracellular …. Kind of assay: SPR (Biacore 4000), mAb captured on anti-human Fc, 25 C. How it is done:
as §1, §2
In the case of B2, the “100 nM Ag Bound” value was 3 RU and the binding result is “no binding (tested: 100 nM)”.

Turning to B3, the “100 nM Ag Bound” value stood at 20 RU, the Kd turned out to be 132 nM, the koff is 0.0168 s⁻¹ and the kon amounted to 128000 M⁻¹ s⁻¹. Further, the t½ was 0.7 min.

As for B4, the “100 nM Ag Bound” value is 59 RU, the Kd worked out at 37.4 nM, the dissociation rate constant (koff) amounted to 0.00246 s⁻¹ and the on-rate constant (kon) turned out to be 65700 M⁻¹ s⁻¹. Further, the t½ is 5 min.

As for B5, the “100 nM Ag Bound” value is 86 RU, the dissociation constant (Kd) was found to be 22.2 nM, the koff was 0.00693 s⁻¹ and the kon turned out to be 312000 M⁻¹ s⁻¹. Further, the t½ worked out at 1.7 min.

Consider B6, for which the “100 nM Ag Bound” value came to 49 RU; the affinity, expressed as Kd, was 2.2 nM; the dissociation rate constant (koff) came to 0.000597 s⁻¹; the kon stood at 272000 M⁻¹ s⁻¹. This molecule also had a t½ of 19 min.

Usually Kd stands for the constant that tells how readily two partners part at equilibrium. A lower Kd goes with higher affinity. In general, koff refers to the first-order rate constant of dissociation. Low readings indicate slow dissociation, high ones fast dissociation. As a reminder, the kon is the rate constant with which the complex forms. A low value points to slower complex formation. The t½ is the time in which the quantity being followed falls by half.
